The record followed here is patent US20240002540A1 (KEYMED BIOSCIENCES CHENGDU, published 2024).

For orientation: EC50 (read off the curve) means the concentration that produces a half-maximal response. The EC50 is the concentration giving half of the maximal effect. As a reminder, the Kd is a measure of binding affinity in units of concentration.

The target of experiment [1] is T1, Cynomolgus monkey CD3εγ-Fc heterodimer (cynomolgus monkey).
T1 construct: also called cynomolgus monkey CD3εγ protein
T1 chain 1: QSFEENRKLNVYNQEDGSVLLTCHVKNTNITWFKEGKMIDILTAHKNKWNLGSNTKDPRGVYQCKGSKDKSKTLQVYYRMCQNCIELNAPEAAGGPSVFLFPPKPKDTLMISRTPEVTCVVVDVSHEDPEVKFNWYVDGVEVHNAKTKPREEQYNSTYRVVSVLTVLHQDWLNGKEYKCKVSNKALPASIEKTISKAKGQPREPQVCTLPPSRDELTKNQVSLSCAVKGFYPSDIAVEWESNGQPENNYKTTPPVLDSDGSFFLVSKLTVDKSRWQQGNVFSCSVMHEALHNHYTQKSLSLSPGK
T1 chain 2: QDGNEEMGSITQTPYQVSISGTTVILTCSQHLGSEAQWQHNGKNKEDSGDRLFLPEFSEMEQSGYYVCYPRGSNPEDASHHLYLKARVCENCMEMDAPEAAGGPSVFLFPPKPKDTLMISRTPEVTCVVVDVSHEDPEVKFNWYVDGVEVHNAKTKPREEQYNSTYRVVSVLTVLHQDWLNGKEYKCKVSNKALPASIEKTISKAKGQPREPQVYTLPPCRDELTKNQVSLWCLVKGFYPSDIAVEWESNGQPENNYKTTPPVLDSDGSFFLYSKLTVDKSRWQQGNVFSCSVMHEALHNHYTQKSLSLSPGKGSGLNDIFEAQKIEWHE
The experiment is described as follows: ELISA on coated cynomolgus monkey CD3εγ protein (panel 'Monkey CD3εγ dimer'). The procedure: Human CD3εγ protein and cynomolgus monkey CD3εγ protein were coated separately overnight at 4° C. After blocking with 2% skim milk, different dilutions of CD3 antibody were added to each well and incubated for 1 hour. After the secondary antibody was developed by adding HPR-labeled goat anti-human IgG Fc and TMB solution, the reaction was stopped with concentrated sulfuric acid, and the absorbance was read at 450 nm.
Background: ELISA stands for enzyme-linked immunosorbent assay.

The target of experiment [2] is T2, human CD3 on T cells (Jurkat cells; human peripheral blood CD4+ and CD8+ T-cells) (human, UniProt P07766 23-207).
T2 construct: whole, on cells; the other chains of the complex are present on the cells; also called CD4T; CD4 + T
The experiment in a line: flow cytometry on human peripheral blood CD4+ T cells. On the technique in general: In flow cytometry, cells or beads pass a laser one at a time.

In experiment [3] the target is T2, human CD3 on T cells (Jurkat cells; …). The experiment in a line: flow cytometry on human peripheral blood CD8+ T cells.
Experiment [4] shares this target. The experiment is described as follows: flow cytometry on Jurkat cells. The procedure:
The cells were adjusted to 5×10^5 cells/mL with 4% calf serum, 100 μL/well was added to 96-well U-plate, 300 g was centrifuged to removed the supernatant, 100 μL/well of gradient diluted antibody (initial concentration: 1800 nM, 3-fold dilution, 10 gradients) was added and incubated at 4° C. for 60 min. […] 50 μL/well PI was added after washing once, incubated for 5 min, and detected with flow cytometer (BD C6).

The target in experiment [5] is T3, human BCMA on cells (human, UniProt Q02223 1-184).
T3 construct: whole, on cells; also called Human BCMA-CHO; CHO-hBCMA
T3 sequence (looked up): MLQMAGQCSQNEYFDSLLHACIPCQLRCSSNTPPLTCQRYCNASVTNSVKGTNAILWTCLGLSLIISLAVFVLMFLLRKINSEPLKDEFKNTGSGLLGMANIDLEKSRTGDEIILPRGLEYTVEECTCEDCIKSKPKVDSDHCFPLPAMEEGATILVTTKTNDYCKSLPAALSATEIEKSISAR
The experiment is described as follows: flow cytometry on NCI-H929 cells. The procedure:
(§1) 50 μL/well Alexa Fluro647 labeled goat anti-human IgG Fc (1: 300 dilution) were added to the secondary antibody, incubated on ice for 20 min, added with 50 μL/well PI solution (1: 300) after washing once, incubated for 5 min, and flow cytometer was used to make detection.

For experiment [6], the target named is T3, human BCMA on cells. The experiment in a line: flow cytometry on RPMI-8226 cells. The procedure:
as §1

Experiment [7] concerns the target T3, human BCMA on cells. The experiment is described as follows: flow cytometry on CHO-human BCMA cells. The procedure:
as §1

Experiment [8] concerns the target T2, human CD3 on T cells (Jurkat cells; …). The experiment is described as follows: flow cytometry on human peripheral blood CD4+ T-cells. The procedure: (§2) Fresh human peripheral blood was taken and PBMC was isolated by Ficoll. Paque Plu (GE, 17-1440-03). PBMC was adjusted to 5×10⁵ cells/mL with 4% calf serum (Hyclone, SH30626.06), 100 μL/well was added to a 96-well U-plate, the supernatant was centrifuged off and 100 μL of gradient diluted antibody (with starting concentration of 1800 nM, 3-fold dilution, 10 gradients) was added to each well and incubated for 60 min at 4° C. 50 μL/well of Alexa Fluro647 labeled goat anti-human IgG Fc (1: 300 dilution) was added to the secondary antibody, with ice bath for 20 min, and 50 μL/well PI added after washing once, incubated for 5 min, and flow cytometer (BD C6) was used for detection. The control antibody REGN5458 was synthesized and prepared according to US20200024356.

The target is the same in experiment [9]. The experiment is described as follows: flow cytometry on human peripheral blood CD8+ T-cells. The procedure:
as §2

For experiment [10], the target named is T4, human CD3εγ-Fc heterodimer (human).
T4 construct: also called human CD3εγ protein; human CD3εγ recombinant protein
T4 chain 1: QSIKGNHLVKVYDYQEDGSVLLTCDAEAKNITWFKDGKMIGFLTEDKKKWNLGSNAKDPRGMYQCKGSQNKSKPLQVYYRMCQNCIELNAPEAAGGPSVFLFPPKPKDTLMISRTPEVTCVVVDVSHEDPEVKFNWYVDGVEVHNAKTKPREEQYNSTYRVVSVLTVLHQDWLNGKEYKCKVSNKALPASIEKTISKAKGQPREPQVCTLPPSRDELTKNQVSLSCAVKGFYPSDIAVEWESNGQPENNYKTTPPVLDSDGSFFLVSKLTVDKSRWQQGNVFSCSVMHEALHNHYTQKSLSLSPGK
T4 chain 2: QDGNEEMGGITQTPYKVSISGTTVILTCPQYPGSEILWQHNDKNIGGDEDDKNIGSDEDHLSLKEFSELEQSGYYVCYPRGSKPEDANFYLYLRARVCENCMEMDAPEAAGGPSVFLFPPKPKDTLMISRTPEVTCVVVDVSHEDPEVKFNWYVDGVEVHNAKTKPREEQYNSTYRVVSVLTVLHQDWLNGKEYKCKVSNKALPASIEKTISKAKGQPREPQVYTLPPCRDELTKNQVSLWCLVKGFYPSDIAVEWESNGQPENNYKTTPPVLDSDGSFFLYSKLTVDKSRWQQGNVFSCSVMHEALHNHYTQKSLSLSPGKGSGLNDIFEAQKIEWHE
The experiment is described as follows: SPR (Biacore T200), antigen amine-coupled to CM5 chip, antibody as analyte, 1:1 model. The procedure: (§3) 10 μg/mL human or cynomolgus monkey BCMA or CD3εγ recombinant antigen was bound to a CM5 chip (GE healthcare) by amino conjugating, while the amount of antigen bound was controlled to approximately 200 RU. After baseline plateau, gradient diluted antibodies (7 gradients of 2-fold dilutions from 10 μg/mL) were flowed through the chip at a flow rate of 30 μL/min for a binding time of 350 seconds and a dissociation time of 600 seconds. Kinetic constants were fitted using Biacore T200 evaluation software with a 1: 1 binding model.
For orientation: SPR reads the build-up and loss of mass on a sensor chip optically.

In experiment [11] the target is T1, Cynomolgus monkey CD3εγ-Fc heterodimer. The experiment is described as above. The procedure: as §3
Experiment [12] addresses T5, human BCMA recombinant antigen (human, UniProt Q02223 1-54, limits assumed).
T5 sequence (looked up): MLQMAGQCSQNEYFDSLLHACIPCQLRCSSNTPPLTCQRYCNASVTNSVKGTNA
Described as above. The procedure: as §3

For experiment [13], the target named is cynomolgus monkey BCMA recombinant antigen (cynomolgus monkey, UniProt A0A2K5UD97 1-53). The experiment is described as above. The procedure: as §3
cynomolgus monkey BCMA recombinant antigen, sequence (A0A2K5UD97 entry or part of it): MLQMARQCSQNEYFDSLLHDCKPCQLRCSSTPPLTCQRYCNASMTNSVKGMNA

B1: aCD3-hVH9/VL2 (antibody, human IgG4, V domains shown)
VH: EVQLVESGGGLVQPGGSLRLSCAASGFTFNTYAMNWVRKAPGKGLEWVGRIRSKYNNYATYYADSVKDRFTISRDDSKNSLYLQMNSLKTEDTAVYYCVRHGNFGNSYVSWFAYWGQGTLVTVSS
VL: QAVVTQEPSLTVSPGGTVTLTCRSSTGAVTTSNYANWVQEKPGQAPRGLIGGTNKRAPWTPARFSGSLLGGKAALTLSGAQPEDEAEYYCALWYSNLWVFGGGTKLTVL
notes: also called humanized anti-CD3 antibody hVH9/VL2
On to B1, for which the “EC50 (read off the curve)” value in [1] was approximately 0.04 ng/mL.

B2: aCD3-hVH9/VL5 (antibody, human IgG4, V domains shown)
VH: EVQLVESGGGLVQPGGSLRLSCAASGFTFNTYAMNWVRKAPGKGLEWVGRIRSKYNNYATYYADSVKDRFTISRDDSKNSLYLQMNSLKTEDTAVYYCVRHGNFGNSYVSWFAYWGQGTLVTVSS
VL: QAVVTQEPSLTVSPGGTVTLTCRSSTGAVTTSNYANWVQEKPGQAPRGLIGGTNKRAPWTPARFSGSLLGGKAALTITGAQAEDEAEYYCVLWYSNLWVFGGGTKLTVL
notes: also called humanized anti-CD3 antibody hVH9/VL5
B2: the “EC50 (read off the curve)” value in experiment [1] was approximately 0.06 ng/mL.

B3: REGN5458 (antibody, V domains shown)
VH: EVQLVESGGGLVQPGRSLRLSCAASGFTFDDYSMHWVRQAPGKGLEWVSGISWNSGSKGYADSVKGRFTISRDNAKNSLYLQMNSLRAEDTALYYCAKYGSGYGKFYHYGLDVWGQGTTVTVSS
VL: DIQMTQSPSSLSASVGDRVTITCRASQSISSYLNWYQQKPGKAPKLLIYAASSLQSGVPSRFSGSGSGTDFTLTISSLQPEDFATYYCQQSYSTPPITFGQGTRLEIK
Take B3: the “EC50 (read off the curve)” value in experiment [2] and in experiment [3] was approximately 10 nM throughout.

B4: BCMA×CD3 κλ006 (bispecific antibody, human IgG4 S228P, kappa, lambda)
light 1: DIVLTQSPASLAVSPGQRATITCRASKSVTTSGYSYIHWYQKKPGQPPKLLIYLASDLEAGVPARFSGSGSGTDFTLTINPVEAEDTANYYCQHSRELPWTFGQGTKVEIKRTVAAPSVFIFPPSDEQLKSGTASVVCLLNNFYPREAKVQWKVDNALQSGNSQESVTEQDSKDSTYSLSSTLTLSKADYEKHKVYACEVTHQGLSSPVTKSFNRGEC
heavy 1: QVQLVQSGSELKKPGASVKVSCKASGYIFTNFGMNWVREAPGQGLEWMGWINTYTGEQIYADGFTGRFVFSLDTSASTAYLQISSLKAEDTAVYFCARGEIYYGYDVGFVYWGQGTLVTVSSASTKGPSVFPLAPCSRSTSESTAALGCLVKDYFPEPVTVSWNSGALTSGVHTFPAVLQSSGLYSLSSVVTVPSSSLGTKTYTCNVDHKPSNTKVDKRVESKYGPPCPPCPAPEFEGGPSVFLFPPKPKDTLMISRTPEVTCVVVDVSQEDPEVQFNWYVDGVEVHNAKTKPREEQFNSTYRVVSVLTVLHQDWLNGKEYKCKVSNKGLASSIEKTISKAKGQPREPQVCTLPPSQEEMTKNQVSLSCAVKGFYPSDIAVEWESNGQPENNYKTTPPVLDSDGSFFLVSKLTVDKSRWQEGNVFSCSVMHEALHNHYTQKSLSLSLGK
light 2: QAVVTQEPSLTVSPGGTVTLTCRSSTGAVTTSNYANWVQEKPGQAPRGLIGGTNKRAPWTPARFSGSLLGGKAALTITGAQAEDEAEYYCVLWYSNLWVFGGGTKLTVLGQPKAAPSVTLFPPSSEELQANKATLVCLISDFYPGAVTVAWKADSSPVKAGVETTTPSKQSNNKYAASSYLSLTPEQWKSHRSYSCQVTHEGSTVEKTVAPTECS
heavy 2: EVQLVESGGGLVQPGGSLRLSCAASGFTFNTYAMNWVRKAPGKGLEWVGRIRSKYNNYATYYADSVKDRFTISRDDSKNSLYLQMNSLKTEDTAVYYCVRHGNFGNSYVSWFAYWGQGTLVTVSSASTKGPSVFPLAPCSRSTSESTAALGCLVKDYFPEPVTVSWNSGALTSGVHTFPAVLQSSGLYSLSSVVTVPSSSLGTKTYTCNVDHKPSNTKVDKRVESKYGPPCPPCPAPEFEGGPSVFLFPPKPKDTLMISRTPEVTCVVVDVSQEDPEVQFNWYVDGVEVHNAKTKPREEQFNSTYRVVSVLTVLHQDWLNGKEYKCKVSNKGLASSIEKTISKAKGQPREPQVYTLPPCQEEMTKNQVSLWCLVKGFYPSDIAVEWESNGQPENNYKTTPPVLDSDGSFFLYSKLTVDKSRWQEGNVFSCSVMHEALHNHYTQKSLSLSLGK
Take B4: the EC50 in experiment [4] stood at 56 nM; with human BCMA on cells [5], 32 nM; in the experiment with human BCMA on cells [6] it was 19 nM; in the experiment with human BCMA on cells [7], 16 nM; in experiment [8], 91 nM; in [9], 93 nM. Moreover, the dissociation constant Kd in experiment [10] stood at 27 nM; in experiment [11] it was 33 nM; in experiment [12] it was 1.2 nM; in [13], 0.1 nM.
